From the Immune Epitope Database (IEDB)

Experiments:
HLA-A*02:50 = assay: IEDB peptide-MHC binding, purified MHC/competitive/fluorescence; filed as Kd, often an IC50 or EC50 that approximates it; ≥ and ≤ were set here for values at or beyond the usual limits of such assays
HLA-B*07:02 [1] = assay: IEDB peptide-MHC binding, purified MHC/direct/fluorescence; filed as Kd, often an IC50 or EC50 that approximates it; ≥ and ≤ were set here for values at or beyond the usual limits of such assays; details: source organism: Salmonella enterica
HLA-C*14:02 = assay: as above; details: source organism: Salmonella enterica subsp. enterica serovar Typhi str. CT18
HLA-B*40:01 [2] = assay: as above; details: source organism: Salmonella enterica
HLA-A*02:01 [3] = assay: as above
HLA-B*58:01 [4] = assay: as above; details: source organism: Salmonella enterica
HLA-B*27:05 [5] = assay: as above; details: source organism: Salmonella enterica
HLA-A*69:01 = assay: as above
HLA-B*44:02 [6] = assay: as above; details: source organism: Salmonella enterica
HLA-A*01:01 [7] = assay: as above; details: source organism: Salmonella enterica
HLA-B*15:01 = assay: as above; details: source organism: Salmonella enterica
HLA-B*08:01 [8] = assay: as above; details: source organism: Salmonella enterica subsp. enterica serovar Typhimurium str. LT2
HLA-A*11:01 [9] = assay: as above; details: source organism: Salmonella enterica
HLA-A*02:16 = assay: as above
HLA-A*03:01 = assay: as above
HLA-A*02:11 = assay: as above; details: source organism: Vibrio vulnificus CMCP6
HLA-B*39:01 [10] = assay: IEDB peptide-MHC binding, purified MHC/competitive/fluorescence; filed as Kd, often an IC50 or EC50 that approximates it; ≥ and ≤ were set here for values at or beyond the usual limits of such assays; details: source organism: Human immunodeficiency virus 1
HLA-B*08:02 = assay: as above; details: source organism: Human immunodeficiency virus 1
HLA-A*02:01 [11] = assay: as above; details: source organism: Human immunodeficiency virus 1
HLA-B*18:01 [12] = assay: as above; details: source organism: Human immunodeficiency virus 1
HLA-A*02:06 [13] = assay: as above; details: source organism: Human immunodeficiency virus 1
HLA-A*02:03 [14] = assay: as above; details: source organism: Human immunodeficiency virus 1
HLA-A*68:02 = assay: as above; details: source organism: Human immunodeficiency virus 1
HLA-A*26:01 [15] = assay: as above; details: source organism: Human immunodeficiency virus 1
HLA-B*07:02 [16] = assay: as above; details: source organism: Listeria monocytogenes J0161
HLA-B*14:02 = assay: as above; details: source organism: Listeria monocytogenes J0161
HLA-B*53:01 = assay: as above; details: source organism: Listeria monocytogenes J0161
HLA-B*40:01 [17] = assay: as above; details: source organism: Listeria monocytogenes J0161
HLA-B*58:01 [18] = assay: as above; details: source organism: Listeria monocytogenes J0161
HLA-B*27:05 [19] = assay: as above; details: source organism: Listeria monocytogenes J0161
HLA-A*30:01 = assay: as above; details: source organism: Listeria monocytogenes J0161
HLA-A*24:03 = assay: as above; details: source organism: Listeria monocytogenes J0161
HLA-B*44:02 [20] = assay: as above; details: source organism: Listeria monocytogenes J0161
HLA-A*01:01 [21] = assay: as above; details: source organism: Listeria monocytogenes J0161
HLA-A*66:01 = assay: as above; details: source organism: Listeria monocytogenes J0161
HLA-B*08:01 [22] = assay: as above; details: source organism: Listeria monocytogenes J0161
HLA-A*11:01 [23] = assay: as above; details: source organism: Listeria monocytogenes J0161
HLA-A*29:02 = assay: IEDB peptide-MHC binding, purified MHC/direct/fluorescence; filed as Kd, often an IC50 or EC50 that approximates it; ≥ and ≤ were set here for values at or beyond the usual limits of such assays; details: source organism: Listeria monocytogenes serotype 4b str. H7858
HLA-B*39:01 [24] = assay: as above; details: source organism: Listeria monocytogenes serotype 4b str. H7858
HLA-A*02:12 = assay: as above; details: source organism: Listeria monocytogenes serotype 4b str. H7858
HLA-B*27:03 = assay: as above; details: source organism: Listeria monocytogenes serotype 4b str. H7858
HLA-B*18:01 [25] = assay: as above; details: source organism: Listeria monocytogenes serotype 4b str. H7858
HLA-A*02:06 [26] = assay: as above; details: source organism: Listeria monocytogenes serotype 4b str. H7858
HLA-A*23:01 = assay: as above; details: source organism: Listeria monocytogenes serotype 4b str. H7858
HLA-A*02:03 [27] = assay: as above; details: source organism: Listeria monocytogenes serotype 4b str. H7858
HLA-B*57:01 = assay: as above; details: source organism: Listeria monocytogenes serotype 4b str. H7858
HLA-B*51:01 = assay: as above; details: source organism: Listeria monocytogenes serotype 4b str. H7858
HLA-A*26:01 [28] = assay: as above; details: source organism: Listeria monocytogenes serotype 4b str. H7858
HLA-A*02:19 = assay: as above; details: source organism: Listeria monocytogenes serotype 4b str. H7858
[29] = source organism: Salmonella enterica
[30] = source organism: Vibrio vulnificus
[31] = source organism: Listeria monocytogenes serotype 4b str. H7858

AMMWRIAQL was tested, and the Kd (HLA-A*02:50; source organism: Salmonella enterica subsp. enterica serovar Typhi) was ≤ 0.1 nM, the Kd (HLA-B*07:02 [1]) was ≥ 20000 nM and the Kd (HLA-C*14:02) was 118 nM. For the same sequence, the Kd (HLA-B*40:01 [2]) was 2280 nM, the Kd (HLA-A*02:01 [3]; [29]) was 26.2 nM and the Kd (HLA-B*58:01 [4]) was ≥ 20000 nM. For the same sequence, the Kd (HLA-B*27:05 [5]) was 348 nM, the Kd (HLA-A*69:01; [29]) was 2000 nM and the Kd (HLA-B*44:02 [6]) was ≥ 20000 nM. For the same sequence, the Kd (HLA-A*01:01 [7]) was ≥ 20000 nM, the Kd (HLA-B*15:01) was 171 nM and the Kd (HLA-B*08:01 [8]) was 612 nM. The Kd (HLA-A*11:01 [9]) was ≥ 20000 nM, the Kd (HLA-A*02:16; source organism: Salmonella enterica subsp. enterica serovar Typhimurium str. LT2) was ≤ 1 nM and the Kd (HLA-A*03:01; [29]) was ≥ 20000 nM.
In the case of QLAFTYCQV, the Kd (HLA-A*02:50; source organism: Vibrio vulnificus YJ016) is reported as ≤ 0.1 nM, the Kd (HLA-A*02:01 [3]; [30]) is reported as 567 nM and the Kd (HLA-A*69:01; [30]) is reported as 153 nM. It also gave a Kd (HLA-A*02:11) of 2 nM and a Kd (HLA-A*02:16; source organism: Vibrio vulnificus CMCP6) of 21 nM.
With IEVKDTKEAL the Kd (HLA-B*39:01 [10]) was ≥ 20000 nM, the Kd (HLA-B*08:02) was ≥ 20000 nM and the Kd (HLA-A*02:01 [11]) was 681 nM. The Kd (HLA-B*18:01 [12]) was 314 nM, the Kd (HLA-A*02:06 [13]) was 574 nM and the Kd (HLA-A*02:03 [14]) was ≥ 20000 nM. For the same sequence, the Kd (HLA-A*68:02) was 766 nM and the Kd (HLA-A*26:01 [15]) was ≥ 20000 nM.
AALEGLSGF was tested, and the Kd (HLA-B*07:02 [16]) was ≥ 5000 nM, the Kd (HLA-B*14:02) was ≥ 5000 nM and the Kd (HLA-B*53:01) was ≥ 5000 nM. For the same sequence, the Kd (HLA-B*40:01 [17]) was ≥ 5000 nM, the Kd (HLA-B*58:01 [18]) was ≥ 5000 nM and the Kd (HLA-B*27:05 [19]) was ≥ 5000 nM. The Kd (HLA-A*30:01) was ≥ 5000 nM, the Kd (HLA-A*24:03) was 771 nM and the Kd (HLA-B*44:02 [20]) was ≥ 5000 nM. For the same sequence, the Kd (HLA-A*01:01 [21]) was ≥ 5000 nM, the Kd (HLA-A*66:01) was ≥ 5000 nM and the Kd (HLA-B*08:01 [22]) was ≥ 5000 nM. The Kd (HLA-A*11:01 [23]) was ≥ 5000 nM, the Kd (HLA-A*29:02) was 542 nM and the Kd (HLA-B*39:01 [24]) was ≥ 20000 nM. The Kd (HLA-A*02:12) was ≥ 20000 nM, the Kd (HLA-B*27:03) was ≥ 20000 nM and the Kd (HLA-A*02:01 [3]; [31]) was 1900 nM. The Kd (HLA-B*18:01 [25]) was ≥ 20000 nM, the Kd (HLA-A*69:01; [31]) was ≥ 20000 nM and the Kd (HLA-A*02:06 [26]) was 1920 nM. The Kd (HLA-A*23:01) was 622 nM, the Kd (HLA-A*02:03 [27]) was ≥ 20000 nM and the Kd (HLA-B*57:01) was ≥ 20000 nM. The Kd (HLA-B*51:01) was ≥ 20000 nM, the Kd (HLA-A*03:01; [31]) was ≥ 20000 nM and the Kd (HLA-A*26:01 [28]) was ≥ 20000 nM. For the same sequence, the Kd (HLA-A*02:19) was ≥ 20000 nM.
